Experimental data reported in publication PMC12416549 (2024).

T1: TNFR1 (Homo sapiens, UniProt P19438)
T1 chain: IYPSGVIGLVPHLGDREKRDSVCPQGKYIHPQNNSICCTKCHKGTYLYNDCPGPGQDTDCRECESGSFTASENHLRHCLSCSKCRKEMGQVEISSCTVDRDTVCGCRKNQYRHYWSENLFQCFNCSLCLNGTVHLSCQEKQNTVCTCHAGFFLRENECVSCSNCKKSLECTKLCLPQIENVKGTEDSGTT

B1: F20K (designed binder)
chain: MTLQELLREEALRRAEAEAKRYALELLAEKFPEQKEYLLDLAEEIESQIRSLSGVDVEDVRKFLDKEWAWVKELLAEHPAELAEVEAARAARLAELRAEVEAKVAA
B2: F31H (designed binder)
chain: MTLQELLREEALRRAEAEAFRYALELLAEKHPEQKEYLLDLAEEIESQIRSLSGVDVEDVRKFLDKEWAWVKELLAEHPAELAEVEAARAARLAELRAEVEAKVAA
B3: A90N (designed binder)
chain: MTLQELLREEALRRAEAEAFRYALELLAEKFPEQKEYLLDLAEEIESQIRSLSGVDVEDVRKFLDKEWAWVKELLAEHPAELAEVEAARNARLAELRAEVEAKVAA
B4: E73P (designed binder)
chain: MTLQELLREEALRRAEAEAFRYALELLAEKFPEQKEYLLDLAEEIESQIRSLSGVDVEDVRKFLDKEWAWVKPLLAEHPAELAEVEAARAARLAELRAEVEAKVAA
B5: L24S (designed binder)
chain: MTLQELLREEALRRAEAEAFRYASELLAEKFPEQKEYLLDLAEEIESQIRSLSGVDVEDVRKFLDKEWAWVKELLAEHPAELAEVEAARAARLAELRAEVEAKVAA
B6: I49Q (designed binder)
chain: MTLQELLREEALRRAEAEAFRYALELLAEKFPEQKEYLLDLAEEIESQQRSLSGVDVEDVRKFLDKEWAWVKELLAEHPAELAEVEAARAARLAELRAEVEAKVAA
B7: M1L (designed binder)
chain: LTLQELLREEALRRAEAEAFRYALELLAEKFPEQKEYLLDLAEEIESQIRSLSGVDVEDVRKFLDKEWAWVKELLAEHPAELAEVEAARAARLAELRAEVEAKVAA
B8: V71C (designed binder)
chain: MTLQELLREEALRRAEAEAFRYALELLAEKFPEQKEYLLDLAEEIESQIRSLSGVDVEDVRKFLDKEWAWCKELLAEHPAELAEVEAARAARLAELRAEVEAKVAA
B9: E25K (designed binder)
chain: MTLQELLREEALRRAEAEAFRYALKLLAEKFPEQKEYLLDLAEEIESQIRSLSGVDVEDVRKFLDKEWAWVKELLAEHPAELAEVEAARAARLAELRAEVEAKVAA
B10: L27C (designed binder)
chain: MTLQELLREEALRRAEAEAFRYALELCAEKFPEQKEYLLDLAEEIESQIRSLSGVDVEDVRKFLDKEWAWVKELLAEHPAELAEVEAARAARLAELRAEVEAKVAA
B11: A23K (designed binder)
chain: MTLQELLREEALRRAEAEAFRYKLELLAEKFPEQKEYLLDLAEEIESQIRSLSGVDVEDVRKFLDKEWAWVKELLAEHPAELAEVEAARAARLAELRAEVEAKVAA
B12: L93V (designed binder)
chain: MTLQELLREEALRRAEAEAFRYALELLAEKFPEQKEYLLDLAEEIESQIRSLSGVDVEDVRKFLDKEWAWVKELLAEHPAELAEVEAARAARVAELRAEVEAKVAA
B13: A17S (designed binder)
chain: MTLQELLREEALRRAESEAFRYALELLAEKFPEQKEYLLDLAEEIESQIRSLSGVDVEDVRKFLDKEWAWVKELLAEHPAELAEVEAARAARLAELRAEVEAKVAA
B14: L64E (designed binder)
chain: MTLQELLREEALRRAEAEAFRYALELLAEKFPEQKEYLLDLAEEIESQIRSLSGVDVEDVRKFEDKEWAWVKELLAEHPAELAEVEAARAARLAELRAEVEAKVAA
B15: L75H (designed binder)
chain: MTLQELLREEALRRAEAEAFRYALELLAEKFPEQKEYLLDLAEEIESQIRSLSGVDVEDVRKFLDKEWAWVKELHAEHPAELAEVEAARAARLAELRAEVEAKVAA
B16: E5G (designed binder)
chain: MTLQGLLREEALRRAEAEAFRYALELLAEKFPEQKEYLLDLAEEIESQIRSLSGVDVEDVRKFLDKEWAWVKELLAEHPAELAEVEAARAARLAELRAEVEAKVAA
B17: R21N (designed binder)
chain: MTLQELLREEALRRAEAEAFNYALELLAEKFPEQKEYLLDLAEEIESQIRSLSGVDVEDVRKFLDKEWAWVKELLAEHPAELAEVEAARAARLAELRAEVEAKVAA
B18: A28H (designed binder)
chain: MTLQELLREEALRRAEAEAFRYALELLHEKFPEQKEYLLDLAEEIESQIRSLSGVDVEDVRKFLDKEWAWVKELLAEHPAELAEVEAARAARLAELRAEVEAKVAA
B19: A83S (designed binder)
chain: MTLQELLREEALRRAEAEAFRYALELLAEKFPEQKEYLLDLAEEIESQIRSLSGVDVEDVRKFLDKEWAWVKELLAEHPAELSEVEAARAARLAELRAEVEAKVAA
B20: G54V (designed binder)
chain: MTLQELLREEALRRAEAEAFRYALELLAEKFPEQKEYLLDLAEEIESQIRSLSVVDVEDVRKFLDKEWAWVKELLAEHPAELAEVEAARAARLAELRAEVEAKVAA
B21: L93I (designed binder)
chain: MTLQELLREEALRRAEAEAFRYALELLAEKFPEQKEYLLDLAEEIESQIRSLSGVDVEDVRKFLDKEWAWVKELLAEHPAELAEVEAARAARIAELRAEVEAKVAA
B22: K30C (designed binder)
chain: MTLQELLREEALRRAEAEAFRYALELLAECFPEQKEYLLDLAEEIESQIRSLSGVDVEDVRKFLDKEWAWVKELLAEHPAELAEVEAARAARLAELRAEVEAKVAA
B23: V104K (designed binder)
chain: MTLQELLREEALRRAEAEAFRYALELLAEKFPEQKEYLLDLAEEIESQIRSLSGVDVEDVRKFLDKEWAWVKELLAEHPAELAEVEAARAARLAELRAEVEAKKAA
B24: A88R (designed binder)
chain: MTLQELLREEALRRAEAEAFRYALELLAEKFPEQKEYLLDLAEEIESQIRSLSGVDVEDVRKFLDKEWAWVKELLAEHPAELAEVEARRAARLAELRAEVEAKVAA
B25: R92C (designed binder)
chain: MTLQELLREEALRRAEAEAFRYALELLAEKFPEQKEYLLDLAEEIESQIRSLSGVDVEDVRKFLDKEWAWVKELLAEHPAELAEVEAARAACLAELRAEVEAKVAA
B26: A105E (designed binder)
chain: MTLQELLREEALRRAEAEAFRYALELLAEKFPEQKEYLLDLAEEIESQIRSLSGVDVEDVRKFLDKEWAWVKELLAEHPAELAEVEAARAARLAELRAEVEAKVEA
B27: A106C (designed binder)
chain: MTLQELLREEALRRAEAEAFRYALELLAEKFPEQKEYLLDLAEEIESQIRSLSGVDVEDVRKFLDKEWAWVKELLAEHPAELAEVEAARAARLAELRAEVEAKVAC
B28: Q48E (designed binder)
chain: MTLQELLREEALRRAEAEAFRYALELLAEKFPEQKEYLLDLAEEIESEIRSLSGVDVEDVRKFLDKEWAWVKELLAEHPAELAEVEAARAARLAELRAEVEAKVAA
B29: P79V (designed binder)
chain: MTLQELLREEALRRAEAEAFRYALELLAEKFPEQKEYLLDLAEEIESQIRSLSGVDVEDVRKFLDKEWAWVKELLAEHVAELAEVEAARAARLAELRAEVEAKVAA
B30: K62M (designed binder)
chain: MTLQELLREEALRRAEAEAFRYALELLAEKFPEQKEYLLDLAEEIESQIRSLSGVDVEDVRMFLDKEWAWVKELLAEHPAELAEVEAARAARLAELRAEVEAKVAA
B31: F63A (designed binder)
chain: MTLQELLREEALRRAEAEAFRYALELLAEKFPEQKEYLLDLAEEIESQIRSLSGVDVEDVRKALDKEWAWVKELLAEHPAELAEVEAARAARLAELRAEVEAKVAA
B32: A76R (designed binder)
chain: MTLQELLREEALRRAEAEAFRYALELLAEKFPEQKEYLLDLAEEIESQIRSLSGVDVEDVRKFLDKEWAWVKELLREHPAELAEVEAARAARLAELRAEVEAKVAA
B33: V104L (designed binder)
chain: MTLQELLREEALRRAEAEAFRYALELLAEKFPEQKEYLLDLAEEIESQIRSLSGVDVEDVRKFLDKEWAWVKELLAEHPAELAEVEAARAARLAELRAEVEAKLAA
B34: I49Y (designed binder)
chain: MTLQELLREEALRRAEAEAFRYALELLAEKFPEQKEYLLDLAEEIESQYRSLSGVDVEDVRKFLDKEWAWVKELLAEHPAELAEVEAARAARLAELRAEVEAKVAA
B35: A17E (designed binder)
chain: MTLQELLREEALRRAEEEAFRYALELLAEKFPEQKEYLLDLAEEIESQIRSLSGVDVEDVRKFLDKEWAWVKELLAEHPAELAEVEAARAARLAELRAEVEAKVAA

Biological target: T1, TNFR1
Experiment: yeast display SC50

| Binder | apparent Kd (screen) |
| --- | --- |
| B1 | 22.2 nM |
| B2 | 1.4 nM |
| B3 | 0.653 nM |
| B4 | 5.31 nM |
| B5 | 0.869 nM |
| B6 | 0.368 nM |
| B7 | 0.653 nM |
| B8 | 0.653 nM |
| B9 | 0.446 nM |
| B10 | 0.539 nM |
| B11 | 0.539 nM |
| B12 | 0.869 nM |
| B13 | 0.956 nM |
| B14 | 5.31 nM |
| B15 | 0.539 nM |
| B16 | 0.653 nM |
| B17 | 0.653 nM |
| B18 | 7.78 nM |

| Binder | apparent Kd (screen) |
| --- | --- |
| B19 | 0.539 nM |
| B20 | 0.653 nM |
| B21 | 0.539 nM |
| B22 | 0.539 nM |
| B23 | 0.593 nM |
| B24 | 0.593 nM |
| B25 | 0.718 nM |
| B26 | 0.593 nM |
| B27 | 1.16 nM |
| B28 | 0.142 nM |
| B29 | 0.79 nM |
| B30 | 0.718 nM |
| B31 | 1.27 nM |
| B32 | 0.49 nM |
| B33 | 0.718 nM |
| B34 | 2.48 nM |
| B35 | 0.229 nM |
